{
  "source": "patent EP1137786B1",
  "key": {"CCR5 [1]": {"target": "CCR5 (UniProt P51681)", "sequence (P51681 whole entry)": "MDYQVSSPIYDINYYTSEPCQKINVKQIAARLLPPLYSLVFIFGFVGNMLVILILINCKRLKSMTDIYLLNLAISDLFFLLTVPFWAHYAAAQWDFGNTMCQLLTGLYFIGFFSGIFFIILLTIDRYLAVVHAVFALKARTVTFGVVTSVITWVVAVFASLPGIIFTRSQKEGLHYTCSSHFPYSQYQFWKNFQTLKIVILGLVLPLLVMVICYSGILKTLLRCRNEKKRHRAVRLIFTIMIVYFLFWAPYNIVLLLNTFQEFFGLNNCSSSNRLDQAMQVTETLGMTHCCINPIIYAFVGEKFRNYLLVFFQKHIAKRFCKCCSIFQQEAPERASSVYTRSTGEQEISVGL", "experiment": "cell-based or functional assay"}, "CXCR4": {"target": "CXCR4 (UniProt P61073)", "sequence (P61073 whole entry)": "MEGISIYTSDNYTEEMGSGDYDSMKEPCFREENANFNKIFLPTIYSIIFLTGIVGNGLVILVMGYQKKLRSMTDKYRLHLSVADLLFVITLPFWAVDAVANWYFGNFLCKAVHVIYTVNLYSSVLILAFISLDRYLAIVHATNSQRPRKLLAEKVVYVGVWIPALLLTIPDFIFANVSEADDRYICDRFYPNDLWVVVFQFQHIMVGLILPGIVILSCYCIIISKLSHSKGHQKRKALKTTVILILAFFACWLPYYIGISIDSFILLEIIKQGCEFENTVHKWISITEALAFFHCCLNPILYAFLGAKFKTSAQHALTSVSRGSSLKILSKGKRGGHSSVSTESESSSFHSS", "experiment": "cell-based or functional assay"}, "CCR5 [2]": {"target": "CCR5 (UniProt P51681)", "experiment": "flow cytometry on L1.2/R5 cells"}},
  "data": [
    {"substance": "gp120-CD4-IgG1 chimeric polypeptide (from UniProt P01730 26-208) (Fc fusion)", "values": [
      {"measurement": "ID90, neutralization of HIV 89.6 on U373/CD4/CCR5 cells", "setting": "CCR5 [1]", "result": 3.56, "unit": "µg/mL"},
      {"measurement": "ID90, neutralization of HIV ADA on U373/CD4/CCR5 cells", "setting": "CCR5 [1]", "result": 4.58, "unit": "µg/mL"},
      {"measurement": "ID90, neutralization of HIV BaL on U373/CD4/CCR5 cells", "setting": "CCR5 [1]", "result": 3.1, "unit": "µg/mL"},
      {"measurement": "ID90, neutralization of HIV 89.6 on U373/CD4/CXCR4 cells", "setting": "CXCR4", "result": "> 10", "unit": "µg/mL"},
      {"measurement": "ID90, neutralization of HIV 2005 on U373/CD4/CXCR4 cells", "setting": "CXCR4", "result": "> 10", "unit": "µg/mL"},
      {"measurement": "ID90, neutralization of HIV 2044 on U373/CD4/CXCR4 cells", "setting": "CXCR4", "result": "> 10", "unit": "µg/mL"}
    ]},
    {"substance": "truncated single chain (TcSC) gp120-CD4 chimeric polypeptide (from UniProt P01730 26-208)", "values": [
      {"measurement": "fold higher concentration needed to approach saturation binding, against FLSC", "setting": "CCR5 [2]", "result": 10, "unit": "fold"}
    ]}
  ]
}
